{"source": "paper PMC8542614", "key": {"[1]": {"biological_target": "HCV E2 ectodomain (eE2), full length, residues 384-656, genotype J6 (HCV genotype J6)", "assay": "ITC"}, "[2]": {"biological_target": "HCV E2 ectodomain (eE2), full length, residues 384-656, genotype J6 (HCV genotype J6)", "assay": "ITC", "remark": "listed apart in the source"}}, "note": "“And” between values parts separate entries of the source, which are not always exact repeats. Equal values may be shown once. Read-outs that look alike come from different tables or passages of the source.", "data": [{"binder": "human CD81 large extracellular loop (hCD81-LEL), residues 112-202 (domain or fragment) GFVNKDQIAKDVKQFYDQALQQAVVDDDANNAKAVVKTFHETLDCCGSSTLTALTTSVLKNNLCPSGSNIISNLFKEDCHQKIDDLFSGKL", "values": [{"measurement": "Kd", "setting": "[1]", "result": 0.773, "unit": "µM"}, {"measurement": "Kd", "setting": "[2]", "result": 0.681, "unit": "µM"}, {"measurement": "dH", "setting": "[2]", "result": "-33 kJ/mol and -27.8 kJ/mol"}, {"measurement": "stoichiometry N", "setting": "[2]", "result": "0.99 and 0.86"}]}]}
